According to publication PMC6973309:

Biological target: human CX3CR1 (human) (UniProt P49238)
Sequence (P49238 whole entry): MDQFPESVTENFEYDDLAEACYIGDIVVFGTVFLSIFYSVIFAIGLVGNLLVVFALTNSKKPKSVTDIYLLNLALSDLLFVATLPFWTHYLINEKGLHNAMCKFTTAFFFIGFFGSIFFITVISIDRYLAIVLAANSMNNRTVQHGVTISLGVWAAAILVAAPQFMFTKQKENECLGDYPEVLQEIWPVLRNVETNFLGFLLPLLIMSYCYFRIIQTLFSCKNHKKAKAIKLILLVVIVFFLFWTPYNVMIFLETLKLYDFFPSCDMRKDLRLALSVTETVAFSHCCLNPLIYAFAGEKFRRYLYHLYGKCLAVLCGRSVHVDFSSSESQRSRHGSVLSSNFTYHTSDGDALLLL

B1: mouse fractalkine (ligand)
chain: QHLGMTKCEIMCDKMTSRIPVALLIRYQLNQESCGKRAIVLETTQHRRFCADPKEKWVQDAMKHLDHQAAALTKNGGKFEKRVDNVTPGITLATRGLSPSALTKPESATLEDLALELTTISQEARGTMGTSQEPPAAVTGSSLSTSEAQDAGLTAKPQSIGSFEAADISTTVWPSPAVYQSGSSSWAEEKATESPSTTAPSPQVSTTSPSTPEENVGSEGQPPWVQGQDLSPEKSLGSEEINPVHTDNFQERGPGNTVHPSVAPISSEETPSPELVASGSQAPKIEEPIHATADPQKLSVLITPVPDTQAATRRQAVGLLAFLGLLFCLGVAMFAYQSLQGCPRKMAGEMVEGLRYVPRSCGSNSYVLVPV
Q: B1 was tested. Which EC50 in the calcium flux assay did it give?
A: 4.8 nM
